Test results as given in patent US20030077661A1 (ST JUDE CHILDREN S RESEARCH HOSPITAL, published 2003).

T1: 6×-Histidine (6×-His) fusion protein containing the C-terminal kinase domain of ATM, residues 2712-3056 (Homo sapiens (Human), UniProt Q13315 2712-3056)
T1 construct: also called ATM kinase domain; not shown: 6×-His tag from pET28
T1 sequence: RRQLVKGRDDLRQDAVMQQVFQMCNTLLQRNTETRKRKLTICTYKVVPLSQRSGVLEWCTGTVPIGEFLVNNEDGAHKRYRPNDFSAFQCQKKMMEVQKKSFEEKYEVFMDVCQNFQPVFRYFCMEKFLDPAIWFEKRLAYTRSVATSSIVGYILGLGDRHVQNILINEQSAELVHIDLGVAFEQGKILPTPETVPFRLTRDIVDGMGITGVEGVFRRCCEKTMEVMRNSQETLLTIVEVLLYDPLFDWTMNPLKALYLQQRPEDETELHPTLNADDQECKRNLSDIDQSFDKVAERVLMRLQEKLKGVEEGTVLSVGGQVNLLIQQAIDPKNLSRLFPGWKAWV


Tests used:
[1] = target: the molecule itself; experiment: SDS-PAGE of the purified fragment (self-association)
Experimental: As the ATM kinase domain interacts stably with the domain containing the autophosphorylation site, it was determined whether a truncated recombinant ATM molecule that included the phosphorylation and kinase domains would fold properly and have kinase activity. A galactose-inducible pYES plasmid containing 6×-His-FLAG®-tagged ATM¹⁹²³⁻³⁰⁵⁶ was transfected into Saccharomyces cerevisiae and a soluble ATM fragment was recovered. The polypeptide was purified by anti-FLAG® affinity chromatography.

[2] = target: T1, 6×-Histidine (6×-His) fusion protein …; experiment: co-expression in E. coli; kinase domain remained insoluble
Description: A further aspect of the invention provides a method of producing soluble ATM kinase by contacting the kinase domain of ATM with a fragment of ATM kinase containing Ser¹⁹⁸¹. […] Although the kinase domain was insoluble in bacteria when co-transfected with GST alone or a GST fusion with the ATM target peptide p53 (residues 1-101), a significant percentage was stabilized and solubilized in the presence of the GST-ATM¹⁹⁶¹⁻²⁰⁴⁶ fusion protein. The kinase domain was also solubilized in the presence of the GST-ATM¹⁹⁶¹⁻²⁰⁴⁶ fusion protein containing Ser¹⁹⁸¹→Ala, but remained insoluble in the presence of phosphorylation-mimic fusion peptides, Ser¹⁹⁸¹→Asp and Ser¹⁹⁸¹→Glu. Furthermore, the soluble kinase domain co-purified on glutathione-agarose with the GST-ATM¹⁹⁶¹⁻²⁰⁴⁶ fusion proteins containing wild-type sequence or Ser¹⁹⁸¹→Ala.

Binder	binding result [1]	binding result [2]
6×-His-FLAG®-tagged ATM^1923-3056 (enzyme, Expressed in S. cerevisiae from pYES2; also called soluble ATM fragment; truncated recombinant ATM; not shown: N-terminal 6×-His and FLAG tags) SSGTIFNDAFWLDLNYLEVAKVAQSCAAHFTALLYAEIYADKKSMDDQEKRSLAFEEGSQSTTISSLSEKSKEETGISLQDLLLEIYRSIGEPDSLYGCGGGKMLQPITRLRTYEHEAMWGKALVTYDLETAIPSSTRQAGIIQALQNLGLCHILSVYLKGLDYENKDWCPELEELHYQAAWRNMQWDHCTSVSKEVEGTSYHESLYNALQSLRDREFSTFYESLKYARVKEVEEMCKRSLESVYSLYPTLSRLQAIGELESIGELFSRSVTHRQLSEVYIKWQKHSQLLKDSDFSFQEPIMALRTVILEILMEKEMDNSQRECIKDILTKHLVELSILARTFKNTQLPERAIFQIKQYNSVSCGVSEWQLEEAQVFWAKKEQSLALSILKQMIKKLDASCAANNPSLKLTYTECLRVCGNWLAETCLENPAVIMQTYLEKAVEVAGNYDGESSDELRNGKMKAFLSLARFSDTQYQRIENYMKSSEFENKQALLKRAKEEVGLLREHKIQTNRYTVKVQRELELDELALRALKEDRKRFLCKAVENYINCLLSGEEHDMWVFRLCSLWLENSGVSEVNGMMKRDGMKIPTYKFLPLMYQLAARMGTKMMGGLGFHEVLNNLISRISMDHPHHTLFIILALANANRDEFLTKPEVARRSRITKNVPKQSSQLDEDRTEAANRIICTIRSRRPQMVRSVEALCDAYIILANLDATQWKTQRKGINIPADQPITKLKNLEDVVVPTMEIKVDHTGEYGNLVTIQSFKAEFRLAGGVNLPKIIDCVGSDGKERRQLVKGRDDLRQDAVMQQVFQMCNTLLQRNTETRKRKLTICTYKVVPLSQRSGVLEWCTGTVPIGEFLVNNEDGAHKRYRPNDFSAFQCQKKMMEVQKKSFEEKYEVFMDVCQNFQPVFRYFCMEKFLDPAIWFEKRLAYTRSVATSSIVGYILGLGDRHVQNILINEQSAELVHIDLGVAFEQGKILPTPETVPFRLTRDIVDGMGITGVEGVFRRCCEKTMEVMRNSQETLLTIVEVLLYDPLFDWTMNPLKALYLQQRPEDETELHPTLNADDQECKRNLSDIDQSFDKVAERVLMRLQEKLKGVEEGTVLSVGGQVNLLIQQAIDPKNLSRLFPGWKAWV	binds	–
GST-ATM^1961-2046 phosphorylation-mimic fusion peptide Ser^1981→Asp (other, not shown: glutathione-S-transferase (GST) as encoded by pGEX-4T-1) YADKKSMDDQEKRSLAFEEGDQSTTISSLSEKSKEETGISLQDLLLEIYRSIGEPDSLYGCGGGKMLQPITRLRTYEHEAMWGKAL	–	no binding
GST-ATM^1961-2046 phosphorylation-mimic fusion peptide Ser^1981→Glu (other, not shown: glutathione-S-transferase (GST) as encoded by pGEX-4T-1) YADKKSMDDQEKRSLAFEEGEQSTTISSLSEKSKEETGISLQDLLLEIYRSIGEPDSLYGCGGGKMLQPITRLRTYEHEAMWGKAL	–	no binding
